Results from patent US20250129143A1 (TOKYO METROPOLITAN INSTITUTE OF MEDICAL SCIENCE, published 2025).

Experiments:
[1] = molecular target: T1, biotinylated ubiquitin (human-derived ubiquitin with C-terminal Cys residue and 6xHis tag, biotin on the Cys) (human, UniProt P0CG48 1-76, biotin tag (EZ-Link Maleimide-PEG11-Biotin) on the added C-terminal Cys residue); test: BLI; biotinylated ubiquitin on streptavidin sensor, Monobody-Nus-His6 as analyte
T1 construct: mature; Construct pET21a-hUb-Cys-His6; also called hUb-Cys-His6; biotin-labeled ubiquitin monomer

[2] = molecular target: T2, K63 (human); test: immunoprecipitation from HCT-116 cell extract; quantitative mass spectrometry; pie chart [panel B]
T2 construct: also called K63 chain; K63-linked ubiquitin chain
Text: (§1) FIG. 7 is a view showing the results of quantitative mass spectrometry analysis of immunoprecipitates. […] The immunoprecipitates subjected to FIG. 5C were electrophoresed, and high molecular weight regions (62 kDa or more) were subjected to quantitative mass spectrometry analysis. A stable isotope-labeled ubiquitin-derived peptide (name: EST) as an internal standard and 8 types of ubiquitin chain-derived peptides (names: K6, K11, K27, K29, K33, K48, K63, and M1) were used, and the quantification values (fmol) were described. Since the EST peptide sequence overlaps with the K63 chain peptide sequence, the total ubiquitin value was calculated by adding the value of the K63 chain-derived peptide to the quantitative value of the EST peptide. The total amount of ubiquitin contained in the ubiquitin monobody immunoprecipitates was confirmed to be higher than that of FK2 or P4D1. […] The value of the control is subtracted from the value of each antibody, a total value of the 8 types of ubiquitin chain-derived peptides is set at 100%, and the percentage of each ubiquitin chain is shown as a pie chart.
(§2) The above-described immunoprecipitate was electrophoresed on 4%-12% NuPAGE Bis-Tris gels (Thermo Fisher Scientific) in MES buffer (Thermo Fisher Scientific) for about 2 cm, and was then stained with CBB (Bio-Safe Commassie, Bio-Rad). After the gel was washed with Milli-Q water, a gel of 62 kDa or more was cut out using a molecular weight marker as an indicator, and the gel was cut into 1 mm squares. The gel pieces were collected in an Eppendorf tube and were washed with 50 mM ammonium bicarbonate and 30% acetonitrile (ACN) for 2 hours, and then with 50 mM ammonium bicarbonate and 50% ACN for 1 hour, and were dehydrated in 100% ACN for 15 minutes. Subsequently, a trypsin solution (20 ng/ml Trypsin Gold, Promega, 50 mM ammonium bicarbonate, and 5% ACN) was added to the resultant, which was then digested at 37° C. overnight.

[3] = molecular target: T3, K33 (human); test: as above
T3 construct: also called K33 chain; K33-linked ubiquitin chain
Text: as §1, §2

[4] = molecular target: T4, K11 (human); test: as above
T4 construct: also called K11 chain; K11-linked ubiquitin chain
Text: as §1, §2

[5] = molecular target: T5, K48 (human); test: as above
T5 construct: quantified through the peptide LIFAGK[di-GlyGly]QLEDGR; also called K48 chain; K48-linked ubiquitin chain
Text: as §1, §2

[6] = molecular target: T6, M1 (human); test: as above
T6 construct: quantified through the peptide GGM[Oxid]QIFVK; also called M1 chain; M1-linked ubiquitin chain
Text: as §1, §2

[7] = molecular target: T7, K6 (human); test: as above
T7 construct: quantified through the peptide M[Oxid]QIFVK[di-GlyGly]TLTGK; also called K6 chain; K6-linked ubiquitin chain
Text: as §1, §2

[8] = molecular target: T8, K29 (human); test: as above
T8 construct: quantified through the peptide AK[di-GlyGly]IQDK; also called K29 chain; K29-linked ubiquitin chain
Text: as §1, §2

[9] = molecular target: T9, K27 (human); test: as above
T9 construct: also called K27 chain; K27-linked ubiquitin chain
Text: as §1, §2

Row | Binder | Kd [1] | percentage of this chain among the 8 ubiquitin chain-derived peptides in the immunoprecipitate (control subtracted) [2] | percentage of this chain among the 8 ubiquitin chain-derived peptides in the immunoprecipitate (control subtracted) [3] | percentage of this chain among the 8 ubiquitin chain-derived peptides in the immunoprecipitate (control subtracted) [4] | percentage of this chain among the 8 ubiquitin chain-derived peptides in the immunoprecipitate (control subtracted) [5] | percentage of this chain among the 8 ubiquitin chain-derived peptides in the immunoprecipitate (control subtracted) [6] | percentage of this chain among the 8 ubiquitin chain-derived peptides in the immunoprecipitate (control subtracted) [7] | percentage of this chain among the 8 ubiquitin chain-derived peptides in the immunoprecipitate (control subtracted) [8] | percentage of this chain among the 8 ubiquitin chain-derived peptides in the immunoprecipitate (control subtracted) [9]
1 | anti-ubiquitin monobody clone E, Monobody-Nus tag-His6 recombinant protein (designed binder, Monobody, Nus tag and His6 fused from the N-terminus; also called Ub monobody; not shown: Nus tag for solubilization) LEVVEASPTSIQISWDANIYSVGQGEYVRYYRITYGETGGNSPVQEFTVPGSKSTATISGLKPGVDYTITVYAVTEYSYMYWGWPPISINYRTHHHHHH | 1.2 nM |  |  |  |  |  |  |  | 
2 | Halo tag-fused anti-ubiquitin monobody (His6-Halo tag-TEV recognition sequence-GGGS-monobody, clone C) (designed binder, Immobilized on Magne HaloTag Beads; also called Ub monobody; Halo tag-fused monobody; not shown: Halo tag) HHHHHHGGGSLEVVEASPTSIQISWDAASFGFTHMDKVRYYRITYGETGGNSPVQEFTVPGSKSTATISGLKPGVDYTITVYAVTWYAYSYWGWPPISINYRT |  | 19% | 0% | 6% | 61% | 0% | 4% | 10% | 0%
3 | anti-ubiquitin monobody clone A, Monobody-Nus tag-His6 recombinant protein (designed binder, Fibronectin type III monobody fused from the N-terminus to Nus tag and His6, made in E. coli; also called Ub monobody; not shown: Nus tag for solubilization) LEVVEASPTSIQISWDAYPYYIIGETVRYYRITYGETGGNSPVQEFTVPGSKSTATISGLKPGVDYTITVYAVTYYGNAFWGWPPISINYRTHHHHHH | 1.1 nM |  |  |  |  |  |  |  | 
